Sequences and labels used below:
B1: human HAdV-11 fiber knob, wild type (domain or fragment)
chain: DDNINTLWTGVNPTEANCQIMNSSESNDCKLILTLVKTGALVTAFVYVIGVSNNFNMLTTHRNINFTAELFFDSTGNLLTRLSSLKTPLNHKSGQNMATGAITNAKGFMPSTTAYPFNDNSREKENYIYGTCYYTASDRTAFPIDISVMLNRRAINDETSYCIRITWSWNTGDAPEVQTSATTLVTSPFTFYYIREDD
notes: HAdV-11 fiber protein, knob, residues D128 to D325 of Swiss-Prot P35774; gene synthesised by GenScript; Trimeric form purified; amine-coupled to the biosensor in the kinetic BLI; also called HAd11K; HAd11 knob; not shown: His6, N-terminal, kept
B2: recombinant DSG2 EC2-EC3 extracellular domains (domain or fragment, human, UniProt Q14126 149-386, looked up)
chain: VLDINDNEPVFTQDVFVGSVEELSAAHTLVMKINATDADEPNTLNSKISYRIVSLEPAYPPVFYLNKDTGEIYTTSVTLDREEHSSYTLTVEARDGNGEVTDKPVKQAQVQIRILDVNDNIPVVENKVLEGMVEENQVNVEVTRIKVFDADEIGSDNWLANFTFASGNEGGYFHIETDAQTNEGIVTLIKEVDYEEMKNLDFSVIVANKAAFHKSIRSKYKPTPIPIKVKVKNVKEGI
notes: desmoglein 2 (DSG2), human, EC2-EC3 domains, residues V149-I386 of Swiss-Prot Q14126.2; Cloned AgeI/KpnI in pHL-sec, which supplies a secretion signal and the C-terminal His6; also called rDSG2; soluble rDSG2; source: HEK293 F, transiently transfected, secreted, purified from supernatant (His GraviTrap, Superdex 200)
B3: recombinant CD46 SCR1-SCR2 domains (domain or fragment, human, UniProt P15529 35-160, looked up)
chain: CEEPPTFEAMELIGKPKPYYEIGERVDYKCKKGYFYIPPLATHTICDRNHTWLPVSDDACYRETCPYIRDPLNGQAVPANGTYEFGYQMHFICNEGYYLIGEEILYCELKGSVAIWSGKPPICEKV
notes: hCD46, the two first extracellular domains (SCR1, SCR2), residues C35-V160 of Swiss-Prot P15529; gene synthesised by GenScript; Cloned in the same vector pHL-sec as rDSG2 (secretion signal, C-terminal His6); also called rCD46; soluble rCD46; source: HEK293 F, transiently transfected, secreted, purified from supernatant (His GraviTrap, Superdex 200)

In data set [1] the target is B2. Kind of data set: BLI; HAd11K (WT or D265A), 100 µg/mL in 10 mM sodium acetate pH 4, amine-coupled to AR2G biosensor; rDSG2 or rCD46 0.7-10.8 µM in HBS-P (10 mM HEPES, 145 mM NaCl, 0.005% P20, pH 7.4) with 3 mM CaCl2; room temperature; association 180 s, dissociation 120 s; global fit. The note with it: both partners purified. On the technique in general: Biolayer interferometry detects binding as a change in optical thickness at a sensor tip.

Data set [2] deals with the molecule itself. Kind of data set: cryo-EM structure; HAd11K in complex with rDSG2; two populations (one or two rDSG2 per knob trimer).
Data set [3] deals with B1. Kind of data set: cryo-EM structure; SEC fraction of HAd11K/rDSG2/rCD46 super-complex (rDSG2:rCD46 3:1). The note with it: both partners purified.
For data set [4], the target named is B1. Description: BLI; HAd11K (WT or D265A), 100 µg/mL in 10 mM sodium acetate pH 4, amine-coupled to AR2G biosensor; rDSG2 or rCD46 0.7-10.8 µM in HBS-P (10 mM HEPES, 145 mM NaCl, 0.005% P20, pH 7.4) with 3 mM CaCl2; room temperature; association 180 s, dissociation 120 s; global fit. The conditions noted are these: both partners purified.

As usually defined, the Kd is the equilibrium constant for the complex coming apart. In general, koff refers to the rate constant with which the complex falls apart. The term kon denotes a measure of how fast the partners come together. The term stoichiometry N denotes a count of units in the complex or per binding partner.

Turning to B1, in data set [1], the equilibrium dissociation constant (Kd) came out at 2900 nM, the koff was 0.114 s⁻¹ and the kon worked out at 39400 M⁻¹ s⁻¹. The “stoichiometry N” value in data set [2] is 3.

As for B2, the “stoichiometry N” value in data set [3] is 1.

Regarding B3, the “stoichiometry N” value in data set [3] is 1. Further, in data set [4], the affinity, expressed as Kd, was 243 nM; the off-rate constant (koff) was determined as 0.005 s⁻¹; the kon is 22800 M⁻¹ s⁻¹.

Values taken from PMC10688334, “Toward the understanding of DSG2 and CD46 interaction with HAdV-11 fiber, a super-complex analysis” (Journal of Virology, 2023).
